Measured values: patent US20140087995A1 (published 2014)
Numbered stars: 1 amine (or outer) side, 2 acyl side, 3 side chain; on linkers, the order of the positions; unused ones are H or OH. Bridge positions count the residues as written; N and C are the ends. Side chains are listed from the residue outwards. Ends that are not written are not given here. * marks the point of attachment. C20 diacid = O=C(O)CCCCCCCCCCCCCCCCCCC(=O)*; γGlu = O=C(O)[C@H](CCC(=O)[*:2])N[*:1]

T1: rat calcitonin receptor (rat, UniProt P32214 25-516)
T1 construct: whole, on cells; Membranes of transiently transfected BHK tk'ts 13 cells (Assay VIII); also called rCTR
T1 sequence (looked up): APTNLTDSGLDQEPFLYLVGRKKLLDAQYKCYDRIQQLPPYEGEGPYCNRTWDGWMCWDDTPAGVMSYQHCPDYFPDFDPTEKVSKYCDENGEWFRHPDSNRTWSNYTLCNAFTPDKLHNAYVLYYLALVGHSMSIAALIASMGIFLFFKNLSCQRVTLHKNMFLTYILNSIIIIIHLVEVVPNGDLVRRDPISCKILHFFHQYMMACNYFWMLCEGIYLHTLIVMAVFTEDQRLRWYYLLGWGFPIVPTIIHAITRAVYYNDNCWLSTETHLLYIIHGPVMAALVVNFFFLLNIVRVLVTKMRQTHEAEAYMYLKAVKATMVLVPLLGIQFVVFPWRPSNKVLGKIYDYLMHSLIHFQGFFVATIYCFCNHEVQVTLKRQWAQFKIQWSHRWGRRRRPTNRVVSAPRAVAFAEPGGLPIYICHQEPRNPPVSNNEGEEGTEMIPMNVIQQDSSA

T2: human calcitonin receptor (human, UniProt P30988 25-474)
T2 construct: whole, on cells; Membranes of a stably transfected BHK cell line (Assay VII); also called hCTR; hCT
T2 sequence (looked up): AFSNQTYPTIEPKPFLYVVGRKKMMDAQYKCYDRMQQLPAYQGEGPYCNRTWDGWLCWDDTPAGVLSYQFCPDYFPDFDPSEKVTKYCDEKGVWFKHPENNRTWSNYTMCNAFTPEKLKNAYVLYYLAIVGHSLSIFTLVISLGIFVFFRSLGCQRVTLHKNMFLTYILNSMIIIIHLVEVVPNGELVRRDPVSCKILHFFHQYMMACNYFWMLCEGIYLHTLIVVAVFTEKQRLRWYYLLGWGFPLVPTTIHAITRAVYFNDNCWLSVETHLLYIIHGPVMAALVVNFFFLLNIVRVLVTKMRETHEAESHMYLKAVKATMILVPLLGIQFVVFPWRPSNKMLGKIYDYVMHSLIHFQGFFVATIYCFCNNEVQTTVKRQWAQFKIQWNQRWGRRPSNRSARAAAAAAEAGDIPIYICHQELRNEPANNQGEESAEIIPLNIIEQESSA

T3: rat amylin receptor (rat calcitonin receptor + rat RAMP 3) (rat, UniProt P32214 25-516; Q9JJ73 23-147)
T3 construct: whole, on cells; Membranes of transiently transfected BHK tk'ts 13 cells (Assay VI); also called rAmylin-R; rat amylin 3(a) receptor
T3 sequence (looked up) 1: T1 sequence (looked up)
T3 sequence (looked up) 2: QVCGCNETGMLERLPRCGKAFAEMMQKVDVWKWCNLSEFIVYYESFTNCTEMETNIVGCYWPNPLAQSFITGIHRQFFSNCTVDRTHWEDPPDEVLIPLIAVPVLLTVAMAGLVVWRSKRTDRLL

B1: N^ε1-[(4S)-4-carboxy-4-(19-carboxynonadecanoylamino)butanoyl]-[Glu14,Arg17,Pro21,Pro27,Pro34,Glu35]-h-amylin (peptide)
peptide: K([γGlu-C20 diacid])CNTATCATQRLAEFLRHSSPNFGAIPSSTNVGPETY-NH2
modifications: disulfide 2-7; N-terminus assumed
SMILES: CC[C@H](C)[C@H](NC(=O)[C@H](C)NC(=O)CNC(=O)[C@H](Cc1ccccc1)NC(=O)[C@H](CC(N)=O)NC(=O)[C@@H]1CCCN1C(=O)[C@H](CO)NC(=O)[C@H](CO)NC(=O)[C@H](Cc1c[nH]cn1)NC(=O)[C@H](CCCNC(=N)N)NC(=O)[C@H](CC(C)C)NC(=O)[C@H](Cc1ccccc1)NC(=O)[C@H](CCC(=O)O)NC(=O)[C@H](C)NC(=O)[C@H](CC(C)C)NC(=O)[C@H](CCCNC(=N)N)NC(=O)[C@H](CCC(N)=O)NC(=O)[C@@H](NC(=O)[C@H](C)NC(=O)[C@@H]1CSSC[C@H](NC(=O)[C@@H](N)CCCCNC(=O)CC[C@H](NC(=O)CCCCCCCCCCCCCCCCCCC(=O)O)C(=O)O)C(=O)N[C@@H](CC(N)=O)C(=O)N[C@@H]([C@@H](C)O)C(=O)N[C@@H](C)C(=O)N[C@@H]([C@@H](C)O)C(=O)N1)[C@@H](C)O)C(=O)N1CCC[C@H]1C(=O)N[C@@H](CO)C(=O)N[C@@H](CO)C(=O)N[C@H](C(=O)N[C@@H](CC(N)=O)C(=O)N[C@H](C(=O)NCC(=O)N1CCC[C@H]1C(=O)N[C@@H](CCC(=O)O)C(=O)N[C@H](C(=O)N[C@@H](Cc1ccc(O)cc1)C(N)=O)[C@@H](C)O)C(C)C)[C@@H](C)O
B2: N^ε1-[(4S)-4-carboxy-4-(19-carboxynonadecanoylamino)butanoyl]-[Glu14,Arg17,Pro21,Pro27,Pro34,Pro37]-h-amylin (peptide)
peptide: K([γGlu-C20 diacid])CNTATCATQRLAEFLRHSSPNFGAIPSSTNVGPNTP-NH2
modifications: disulfide 2-7; N-terminus assumed
SMILES: CC[C@H](C)[C@H](NC(=O)[C@H](C)NC(=O)CNC(=O)[C@H](Cc1ccccc1)NC(=O)[C@H](CC(N)=O)NC(=O)[C@@H]1CCCN1C(=O)[C@H](CO)NC(=O)[C@H](CO)NC(=O)[C@H](Cc1c[nH]cn1)NC(=O)[C@H](CCCNC(=N)N)NC(=O)[C@H](CC(C)C)NC(=O)[C@H](Cc1ccccc1)NC(=O)[C@H](CCC(=O)O)NC(=O)[C@H](C)NC(=O)[C@H](CC(C)C)NC(=O)[C@H](CCCNC(=N)N)NC(=O)[C@H](CCC(N)=O)NC(=O)[C@@H](NC(=O)[C@H](C)NC(=O)[C@@H]1CSSC[C@H](NC(=O)[C@@H](N)CCCCNC(=O)CC[C@H](NC(=O)CCCCCCCCCCCCCCCCCCC(=O)O)C(=O)O)C(=O)N[C@@H](CC(N)=O)C(=O)N[C@@H]([C@@H](C)O)C(=O)N[C@@H](C)C(=O)N[C@@H]([C@@H](C)O)C(=O)N1)[C@@H](C)O)C(=O)N1CCC[C@H]1C(=O)N[C@@H](CO)C(=O)N[C@@H](CO)C(=O)N[C@H](C(=O)N[C@@H](CC(N)=O)C(=O)N[C@H](C(=O)NCC(=O)N1CCC[C@H]1C(=O)N[C@@H](CC(N)=O)C(=O)N[C@H](C(=O)N1CCC[C@H]1C(N)=O)[C@@H](C)O)C(C)C)[C@@H](C)O

The binders below were run against T1, rat calcitonin receptor (assay: ratio IC50 rat calcitonin receptor / IC50 rat amylin receptor (reference)).

| Ratio rCT/rAmylin binding | Binder |
| --- | --- |
| 63.2 | B1 |
| 52.2 | K([γGlu-C20 diacid])CNTATCATQRLAEFLRHSSPNFGAIPSSTNVGPHTY-NH2 (disulfide 2-7) |
| 1.1 | B2 |

Each binder was assayed against T2, human calcitonin receptor (assay: ratio IC50 human calcitonin receptor / IC50 human amylin receptor (reference)).
Procedure, shortened: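 Membranes (35 ng/μL final) + SPA beads, 50 mM Hepes pH 7.4 buffer with 1 mM CaCl2, 5 mM MgCl₂, 0.1% OA, 0.02% Tween20; 120 min, 25° C, shaking; centrifuged, counted; IC₅₀ by one-site binding competition.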

| Ratio hCT/hAmylin binding | Binder |
| --- | --- |
| 13.3 | B1 |
| 21.2 | K([γGlu-C20 diacid])CNTATCATQRLAEFLRHSSPNFGAIPSSTNVGPHTY-NH2 (disulfide 2-7) |
| 0.5 | B2 |

Each binder was assayed against T1, rat calcitonin receptor (assay: SPA competition with 125I-calcitonin, membranes of BHK cells with rat calcitonin receptor (Assay VIII)).

| IC50 | Binder |
| --- | --- |
| 10.4 nM | B1 |
| 5.43 nM | K([γGlu-C20 diacid])CNTATCATQRLAEFLRHSSPNFGAIPSSTNVGPHTY-NH2 (disulfide 2-7) |
| 0.206 nM | B2 |

What follows are binders tested against T3, rat amylin receptor (rat calcitonin …) (assay: SPA competition with 125I-rat amylin, membranes of BHK cells with rat calcitonin receptor + rat RAMP3 (Assay VI)).

| IC50 | Binder |
| --- | --- |
| 0.164 nM | B1 |
| 0.104 nM | K([γGlu-C20 diacid])CNTATCATQRLAEFLRHSSPNFGAIPSSTNVGPHTY-NH2 (disulfide 2-7) |
| 0.188 nM | B2 |
